Data: the supplement of paper PMC12764529
± gives the half width of the 95% confidence interval.

What was measured:
[1] = folding stability dG unfold from trypsin proteolysis; higher = more stable
How it was run: (§1)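 K50 was inferred by Bayesian fitting of sequencing counts obtained after protease digestion of designed mini-proteins. Unfolding free energy was derived by comparison with a sequence-predicted unfolded-state K50 and a shared folded-state K50, for each protease or both combined. The mini-proteins were under 80 residues, had no cysteine, were carried in a PA-tagged cDNA display construct, and were kept only if AlphaFold2 dimer inter-PAE exceeded 15.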

[2] = folding stability dG unfold from chymotrypsin proteolysis; higher = more stable
How it was run: as §1

[3] = folding stability dG unfold (combined trypsin and chymotrypsin); higher = more stable
How it was run: as §1

Row | Sequence | folding stability dG unfold [1] [kcal/mol] | folding stability dG unfold [2] [kcal/mol] | folding stability dG unfold [3] [kcal/mol]
1 | SSMSMKTITIDATFTSEEEAKKYAEEIKKKIPPENIKNISISSTPELVTGDGTYKGEKIKVTITIEIVKKSA [r9_605_JUSTAS] | 1.64 ± 0.17 | 1.74 ± 0.2 | 1.71 ± 0.26
2 | SAGGSAPWVTLPIIIMFDSPEQAVEEVKPIFQELFGIKDVNVEEEPMPNGMVFVPIEITIPAENMKSAGGSA [r15_173_TrROS] | 0.547 ± 0.061 | 1.38 ± 0.07 | 1.09 ± 0.092
3 | SAGGSAGGSAGGEIKGKKFKIVKIVEVRYDKETKEFYVRIYIEDTNEIITVRLEDLPEELSAGGSAGGSAGG [r7_304_TrROS_Hall] | 1.83 ± 0.077 | 2.29 ± 0.025 | 2.25 ± 0.18
4 | SNPENIDKITFTFRWPDGNPMEIEIDPDGTVEYEYPNGWEIEITIDPDDGKLTIEMTFPNGRPQEQKIPISA [r9_99_TrROS] | 1.86 ± 0.12 | 2.85 ± 0.097 | 2.94 ± 0.38
5 | SAGGSAGGSAGGSMTTVTLPDAVSTNVTTTKLPDNTTKVDITTTFPDGSTRSSTITINPSAGGSAGGSAGGS [r4_452_JUSTAS] | -0.305 ± 0.049 | 1.32 ± 0.05 | 0.908 ± 0.07
6 | SAGEKPEKPPEVTITITSVKVERLPDGTVVVEVEAEIEVDGVTLTVRARFVYRDGKLFLEVEVRLEPLPSAG [r5_267_TrROS_Hall] | 3.5 ± 0.19 | 5.47 ± 0.24 | 4.59 ± 0.95
7 | SAGMISSVSSEPSTNTTTATIPETGKTITYNPETGTLTVTPPTGNPSVIPVETPEEAERAMEEVIAELSSAG [r5_467_JUSTAS] | 1.11 ± 0.041 | 0.228 ± 0.038 | 0.816 ± 0.079
8 | SAGGSAGGSAGGSMATITPEGDKYLVTITNPDGSTTTKEFDSLEEVKKLPSSYPIEFSDSAGGSAGGSAGGS [r4_447_JUSTAS] | 2.11 ± 0.065 | 0.802 ± 0.026 | 1.52 ± 0.094
9 | SGMMRTIVLKIPIEEARKLLGDPNKPVSEEELKALVEKLAKEKGLDVEEIKVEKLPDGTYVVTVLVPDLGSA [r9_52_JUSTAS] | 3.06 ± 0.12 | 4.12 ± 0.076 | 3.81 ± 0.099
10 | SAGGSASTVTRTRTIPGSGLTVEITETPLPDGTYSYTVTFYAPDSALKTTPKTAAPDELPEEELLSSAGGSA [r15_147_JUSTAS] | 0.35 ± 0.049 | 1.48 ± 0.042 | 1.1 ± 0.06
11 | SAGGSAGGSAGKPIIKVKIIEKKDGYLKIEIEDEKTGETKTITLKPGQKLEIKLELVKEPSAGGSAGGSAGG [r11_738_TrROS_Hall] | 1.92 ± 0.15 | 1.33 ± 0.064 | 1.62 ± 0.11
12 | SAGDWYIVIKITIYHPNKREREFPIVFDWKDGKIEIAPEFLQNIAEELGLPPNMKIEIEIVEIMPPNDSAGG [r19_287_TrROS] | 1.75 ± 0.12 | 3.22 ± 0.099 | 2.43 ± 0.55
13 | SAGSSMSLPLPEEIEIEIPNPGLSLEEIKKIVADKLGLKIVSVEEEEGRLVFKAENGIPIRVKIEEPGKSAG [r5_350_JUSTAS] | 2.35 ± 0.13 | 2.376 ± 0.013 | 2.34 ± 0.072
14 | SAGGSAGGTIIIEVDTREDALEAARALAEALLPPGYRVEIVSVEEVDGRVYVAIEVRPVPEEELSAGGSAGG [r6_72_TrROS_Hall] | 2.43 ± 0.12 | 3.26 ± 0.078 | 3.17 ± 0.12
15 | SAGGSAGGSMSTSLSLSSAPGVSVVTTAHPDSTVVTEQPPDGSRVVRVLDPAGELVAEEAVAPSAGGSAGGS [r12_471_JUSTAS] | -0.623 ± 0.36 | -0.302 ± 0.16 | -0.33 ± 0.15
16 | SAGGMKLEILEKSENRIIIRTDEGKIYIAPEIVKKLKEKGGNIKPTLDEIIEWLEKNNIPAEDAVFGDSAGG [r13_610_TrMRF] | 0.689 ± 0.028 | 1.11 ± 0.064 | 0.915 ± 0.11

Row | Sequence | folding stability dG unfold [1] [kcal/mol] | folding stability dG unfold [2] [kcal/mol] | folding stability dG unfold [3] [kcal/mol]
17 | SAGGSAGGEIVITLPNVKSKEEAKKAAEKLIEELKKKGIKDKTIKVTVIDEKTGKEYTFTIKLKSAGGSAGG [r6_237_TrROS_Hall] | 3.81 ± 0.15 | 4.38 ± 0.16 | 4.14 ± 0.3
18 | SAGGSAGGSAGGSFDIEQERNPENGYHRVTIDFPNGPPVEIWMPPGSTLEQIEDLAKQFSAGGSAGGSAGGS [r4_205_TrROS] | 1.07 ± 0.036 | 0.658 ± 0.1 | 0.878 ± 0.12
19 | SAGGSAGGKSPEDRQRENMKPVPPIEVVEIRIPIPPGMPIDQAKNIASNLMEHLGVDYVRIEITSAGGSAGG [r6_517_TrROS] | 0.679 ± 0.038 | -0.478 ± 0.21 | 0.297 ± 0.24
20 | SAGGLLVVLPPDLTPEELREKALELAELARKAGDFEVERIELVRDEETDRPYAVLVIRDPRTGKILVASAGG [r13_669_TrMRF] | 1.39 ± 0.014 | 1.05 ± 0.062 | 1.23 ± 0.042
21 | SAGGSAGGNTIMIPLPPNMPLDEVAKELMDAFPDYPIKDVEYERYGDRPMVTVRFPDGWKITIWSAGGSAGG [r6_492_TrROS] | 0.543 ± 0.034 | 0.818 ± 0.22 | 0.838 ± 0.12
22 | SAGGFIRIETPNGKKISPEVREEAEEAIRDGDWDDAVKKISDWLRERFGHPMPIKIEVMMPPPKPPKSAGGS [r8_48_TrROS] | 0.547 ± 0.061 | 1.19 ± 0.11 | 0.995 ± 0.18
23 | SAGGSAGGSAGFKSVTIGSGTGGLTLTITDVTTGKNTVVNATSLEEAEKIGKEKGWKIILSSAGGSAGGSAG [r3_67_JUSTAS] | 0.604 ± 0.07 | -0.281 ± 0.4 | 0.305 ± 0.15
24 | SAGGDIKFEIGLELLPDGILVIRGSVEVRMGGQSVTYEFIIIVKIKPIPPPPPPPKPKYNPEDGKWKSAGGS [r8_269_TrROS] | 2.32 ± 0.076 | 2.89 ± 0.11 | 2.58 ± 0.22
25 | SAGGSAGGSMKIPSDYTLTPIETKDNGASTVTLEKVTYPGPSLLATFLTPPDGTVTLLEVKPVSAGGSAGGS [r20_103_JUSTAS] | 0.525 ± 0.046 | 1.24 ± 0.072 | 0.997 ± 0.065
26 | SAMTVVIPPNLTALTEDGRPIHPDQVVEVYEAEAFPELGRVVARVKVFDPVSGEETEERLVLFFPDGAESAG [r14_258_TrMRF] | 1.26 ± 0.033 | 1.66 ± 0.021 | 1.53 ± 0.036
27 | SGISNEEIKKILEEIAKEYPGLKIEIKPGTEPSVAKGPKAVVTLTRKPGYLEITITFPETGETTTIPIPPSA [r9_1062_JUSTAS] | 2.51 ± 0.072 | 2.721 ± 0.02 | 2.64 ± 0.043
28 | SAGGSAGGSAGGMTVTVEISIPVTVETSFFKPNKPYFKKKTINKKITIEIPNGEPLSLLSAGGSAGGSAGGS [r10_633_JUSTAS] | 0.492 ± 0.14 | -0.0788 ± 0.2 | 0.249 ± 0.13
29 | SSATVTFTVELPDDSVIVSVRIDAEEYDPGPPWVRVTIEVEIYDKNGELLATLRFEFLLPREVLEELRKSSA [r9_234_TrMRF] | 4.23 ± 0.14 | 5.74 ± 0.3 | 5.77 ± 0.66
30 | SAGGSAGGGSMSMPVTTKLVEEYTFPGTKEEAEEFLKKKLPPNYQVEITETPDSIKVKVYKVEGSAGGSAGG [r6_953_JUSTAS] | 2.31 ± 0.053 | 2.36 ± 0.042 | 2.38 ± 0.057
31 | SAGGSAGGSAMYKVTIEIPETGKIYTFTHPGTAEEALAAALPEIGVSKEKIKKITVTPTEESAGGSAGGSAG [r3_79_JUSTAS] | 0.312 ± 0.079 | 1.36 ± 0.11 | 0.994 ± 0.11
